# Patent US9187525B2, “Methods of treating ophthalmic diseases using NPR-B agonists” (Shire Orphan Therapies GmbH, dated 2015)
# Square brackets hold non-standard residues; d marks the D form. Ends that are not written are not given here. * marks the point of attachment. Hyp = O=C(O)[C@@H]1C[C@@H](O)CN1; tBuAla = CC(C)(C)C[C@H](N)C(=O)O; Cha = N[C@@H](CC1CCCCC1)C(=O)O; NMeL = CN[C@@H](CC(C)C)C(=O)O; Nle = CCCC[C@H](N)C(=O)O; Octanoyl = CCCCCCCC(=O)*; Nva = CCC[C@H](N)C(=O)O; Aib = CC(C)(N)C(=O)O; Occ = octanoic acid
# T1: natriuretic peptide receptor-B (human)
# T1 chain: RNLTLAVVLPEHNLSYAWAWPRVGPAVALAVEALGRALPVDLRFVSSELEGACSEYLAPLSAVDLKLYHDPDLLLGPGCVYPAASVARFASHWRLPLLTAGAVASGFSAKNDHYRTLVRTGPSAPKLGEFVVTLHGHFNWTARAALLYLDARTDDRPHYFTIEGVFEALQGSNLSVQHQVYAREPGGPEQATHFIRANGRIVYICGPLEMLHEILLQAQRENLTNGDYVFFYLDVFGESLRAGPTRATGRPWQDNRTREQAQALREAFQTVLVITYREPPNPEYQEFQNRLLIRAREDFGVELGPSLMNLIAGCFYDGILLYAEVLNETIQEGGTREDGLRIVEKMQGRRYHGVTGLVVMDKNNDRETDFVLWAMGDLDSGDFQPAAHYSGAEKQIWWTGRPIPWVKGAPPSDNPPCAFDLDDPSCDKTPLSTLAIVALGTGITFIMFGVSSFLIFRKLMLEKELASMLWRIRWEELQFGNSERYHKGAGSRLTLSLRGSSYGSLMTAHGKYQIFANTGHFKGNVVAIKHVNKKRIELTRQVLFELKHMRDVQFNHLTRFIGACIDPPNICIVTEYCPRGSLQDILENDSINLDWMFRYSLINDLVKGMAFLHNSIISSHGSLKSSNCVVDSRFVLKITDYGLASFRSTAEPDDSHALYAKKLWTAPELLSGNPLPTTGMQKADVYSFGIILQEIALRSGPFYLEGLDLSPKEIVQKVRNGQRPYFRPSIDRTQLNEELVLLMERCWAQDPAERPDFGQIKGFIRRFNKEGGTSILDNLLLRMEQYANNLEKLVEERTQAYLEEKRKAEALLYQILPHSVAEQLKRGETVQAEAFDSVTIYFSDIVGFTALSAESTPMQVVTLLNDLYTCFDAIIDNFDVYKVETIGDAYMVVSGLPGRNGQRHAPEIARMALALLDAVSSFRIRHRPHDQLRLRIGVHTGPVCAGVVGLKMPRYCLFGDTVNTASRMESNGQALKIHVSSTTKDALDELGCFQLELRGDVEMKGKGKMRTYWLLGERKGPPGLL
# B1: JAL-0929 (peptide)
# peptide: [Occ]AFGLPLTRI-NH2
# modifications: not fully specified (residue 2); printed as Occ-ala-Phe-Gly-Leu-Pro-Leu-Thr-Arg-Ile-NH2
# B2: JAL-0894 (peptide)
# peptide: Octanoyl-AFGLPIDRI-NH2
# modifications: not fully specified (some residues); printed as Occ-ala-Phe-Gly-Leu-Pro-Ile-Asp-Arg-Ile-NH2
# B3: JAL-0898 (peptide)
# peptide: Octanoyl-AFGL[Hyp]LDRI-NH2
# modifications: not fully specified (some residues); printed as Occ-ala-Phe-Gly-Leu-Hyp-Leu-Asp-Arg-Ile-NH2
# B4: JAL-0927 (peptide)
# peptide: [Occ]AFGLPLVRI-NH2
# modifications: not fully specified (residue 2); printed as Occ-ala-Phe-Gly-Leu-Pro-Leu-Val-Arg-Ile-NH2
# B5: JAL-0921 (peptide)
# peptide: [Occ]AFGLPLD[Nmr]I-NH2
# modifications: not fully specified (residue 2); printed as Occ-ala-Phe-Gly-Leu-Pro-Leu-Asp-Nmr-Ile-NH2
# B6: JAL-0940 (peptide)
# peptide: [Occ]AFG[Cha]PLDRI-NH2
# modifications: not fully specified (residue 2); printed as Occ-ala-Phe-Gly-Cha-Pro-Leu-Asp-Arg-Ile-NH2
# B7: JAL-0895 (peptide)
# peptide: Octanoyl-AFGLP[NMeL]DRI-NH2
# modifications: not fully specified (some residues); printed as Occ-ala-Phe-Gly-Leu-Pro-Nml-Asp-Arg-Ile-NH2
# B8: JAL-0926 (peptide)
# peptide: [Occ]AFGLPL[Nva]RI-NH2
# modifications: not fully specified (residue 2); printed as Occ-ala-Phe-Gly-Leu-Pro-Leu-Nva-Arg-Ile-NH2
# B9: JAL-0903 (peptide)
# peptide: Octanoyl-AFG[tBuAla]PLDRI-NH2
# modifications: not fully specified (some residues); printed as Occ-ala-Phe-Gly-Npg-Pro-Leu-Asp-Arg-Ile-NH2
# B10: JAL-0906 (peptide)
# peptide: [Occ]AXGLPLDRI-NH2
# modifications: not fully specified (residues 2, 3); printed as Occ-ala-Nmf-Gly-Leu-Pro-Leu-Asp-Arg-Ile-NH2
# B11: JAL-0942 (peptide)
# peptide: [Occ]AFG[Nle]PLDRI-NH2
# modifications: not fully specified (residue 2); printed as Occ-ala-Phe-Gly-Nle-Pro-Leu-Asp-Arg-Ile-NH2
# B12: JAL-0896 (peptide)
# peptide: Octanoyl-AFGLP[tBuAla]DRI-NH2
# modifications: not fully specified (some residues); printed as Occ-ala-Phe-Gly-Leu-Pro-Npg-Asp-Arg-Ile-NH2
# B13: JAL-0924 (peptide)
# peptide: [Occ]AFGLPLNRI-NH2
# modifications: not fully specified (residue 2); printed as Occ-ala-Phe-Gly-Leu-Pro-Leu-Asn-Arg-Ile-NH2
# B14: JAL-0943 (peptide)
# peptide: [Occ]AF[Aib]LPLDRI-NH2
# modifications: not fully specified (residue 2); printed as Occ-ala-Phe-Aib-Leu-Pro-Leu-Asp-Arg-Ile-NH2
# Target: T1, natriuretic peptide receptor-B
# Experiment: cell-based or functional assay
row,"EC50 group, cGMP in GTM-3 cells [µM]",Binder
1,≤ 15,B1
2,≤ 15,B2
3,≤ 5,B3
4,≤ 15,B4
5,≤ 15,B5
6,≤ 15,B6
7,≤ 5,B7
8,≤ 15,B8
9,≤ 15,B9
10,≤ 15,B10
11,≤ 15,B11
12,≤ 15,B12
13,≤ 15,B13
14,≤ 15,B14
